The Km is the concentration of substrate that gives half-maximal velocity. One may read the Vmax as the rate approached at saturating substrate.

Experiment in all cases: purified protein
The test system of one data set is O=C(O)CC(=O)C(=O)O. The note with it: 0.18 mM MnCl2, 100 mM Tris-HCl pH 8.0.
The test system of a further data set is NC[C@H](N)C(=O)O. The note with it: oxalyl-CoA made in situ by excess PanE from 1 mM CoA, 1 mM NADP+, 1 mM glyoxylate, 50 mM Tris-HCl pH 7.5, 30 °C.
Substrate in the data set “purified protein”: O=CC(=O)O
The class given is biochemical, Saccharomyces cerevisiae. Conditions: 2 mM cytochrome c, 100 mM sodium phosphate pH 7.5.

Consider Fpoah (Fomitopsis palustris), for which, in the data set on O=C(O)CC(=O)C(=O)O, the Km turned out to be 420 µM and the maximal velocity (Vmax) turned out to be 22.8 µM/min/mg.
As for LsBAHD (Lathyrus sativus), in the data set with NC[C@H](N)C(=O)O, the Michaelis constant (Km) turned out to be 520 µM and the maximum rate (Vmax) was determined as 2.88 µM/min/mg.

B1: Scgloxdh (Cyb2p) (Saccharomyces cerevisiae S288C) (protein)
chain: EPKLDMNKQKISPAEVAKHNKPDDCWVVINGYVYDLTRFLPNHPGGQDVIKFNAGKDVTAIFEPLHAPNVIDKYIAPEKKLGPLQGSMPPELVCPPYAPGETKEDIARKEQLKSLLPPLDNIINLYDFEYLASQTLTKQAWAYYSSGANDEVTHRENHNAYHRIFFKPKILVDVRKVDISTDMLGSHVDVPFYVSATALCKLGNPLEGEKDVARGCGQGVTKVPQMISTLASCSPEEIIEAAPSDKQIQWYQLYVNSDRKITDDLVKNVEKLGVKALFVTVDAPSLGQREKDMKLKFSNTKAGPKAMKKTNVEESQGASRALSKFIDPSLTWKDIEELKKKTKLPIVIKGVQRTEDVIKAAEIGVSGVVLSNHGGRQLDFSRAPIEVLAETMPILEQRNLKDKLEVFVDGGVRRGTDVLKALCLGAKGVGLGRPFLYANSCYGRNGVEKAIEILRDEIEMSMRLLGVTSIAELKPDLLDLSTLKARTVGVPNDVLYNEVYEGPTLTEFEDA
For B1, in “purified protein”, the Km was found to be 740 µM and the Vmax amounted to 0.66 µM/min/mg.

Values taken from publication PMC9485241, “Biosynthesis of plant hemostatic dencichine in Escherichia coli” (Nature Communications, 2022).
